Earlier results as cited in publication PMC9074927.
Like-named read-outs stand apart in the source and are kept apart here.

Experiments:
[1] = molecular target: histone H3 (Homo sapiens) (UniProt P68431)
[2] = molecular target: histone H3 (Homo sapiens) (UniProt P68431); remark: listed apart in the source

Kd [1] [nM]	Kd [2] [nM]	Substance
600	–	CBX1 chromodomain (from UniProt P83916)
–	130	CBX1 eReader chromodomain (from UniProt P83916)
